Source: patent US7429646

Biological target: its ligand (ligand of TR2, not identified)
Assay: cell-based or functional assay

Substance “TR2-Fc fusion protein (TR2 extracellular domain fused to human IgG1 Fc, pcDNA3, NIH 3T3) (from UniProt Q92956 37-200)” has an allogeneic MLR-mediated proliferation of PBMC ([3H]-thymidine incorporation) of under 53%.
